Measured values as given in patent US20190248902A1 (published 2019).
Each block holds one binder with its values, some of them ahead of it.

Assays:
human ASGR-1 (wild type) [1] = target: T1, human ASGR-1 (wild type) (human, UniProt P07306 1-291); test: flow cytometry, CHO-S:huASGR-1 cells, 11-point titration
T1 construct: also called wt ASGR1; huASGR-1
T1 sequence: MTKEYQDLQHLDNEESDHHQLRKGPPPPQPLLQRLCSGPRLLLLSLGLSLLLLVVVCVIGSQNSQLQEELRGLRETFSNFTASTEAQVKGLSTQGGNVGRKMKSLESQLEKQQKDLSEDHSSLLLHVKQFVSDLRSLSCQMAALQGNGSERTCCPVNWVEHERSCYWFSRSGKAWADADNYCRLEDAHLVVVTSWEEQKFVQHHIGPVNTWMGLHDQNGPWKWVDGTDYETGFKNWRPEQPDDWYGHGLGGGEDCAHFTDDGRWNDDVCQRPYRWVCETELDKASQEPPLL
Experimental: CHO—S stable high-expressing cell line were developed for both human ASGR-1 as well as mouse ASGR-1. A typical 384 well plate multiplex flow cytometery-based cell binding method is described as followed: Parental CHO—S cells and CHO—S:huASGR-1 cells were respectively labeled using a CellTrace CFSE Cell Proliferation Kit (ThermoFisher Catalog #C34554) and CellTrace Violet Cell Proliferation Kit (ThermoFisher Catalog#C34557) CHO—S:muASGR-1 were not labeled. 20 ul of cells at 4C were added to duplicate wells of the 384 well plate. The cells were equally mixed from all three cell lines (30K cells/well). Then 20 ul of the ASGR-1 antibodies (either purified from hybridoma supernatants or made recombinantly) were added in an 11-point dose response using a 1:2 fold serial dilution starting at 100 nM. The cells and antibodies were incubated for 30 min at 4C and then spun down and washed twice with FACS buffer containing 1 mM CaCl2. 30 ul of anti-hulgG-APC secondary antibodies were then added at a 1:1000 dilution) for 30 min at 4C and then washed once with the same buffer. 60 ul of PI (1:1000) was added and then the cells were read by a core flow cytometry facility. The cells were gated first for live cells, then for single cells and finally for the cell dyes to separate the mixed cells into the three different cell populations. Histograms of signal vs count representing the binding profile of each antibody at each antibody concentration were automatically analyzed for the median of the binding signal and then a binding graph was made with log 10 antibody concentration in nM on the X axis with […] from the duplicate wells on the Y-axis. The binding curves were fit with a standard four parameter sigmoidal binding curve and EC50's reported for all graphs with full curves.

human ASGR-1 (wild type) [2] = target: T1, human ASGR-1 (wild type); test: FACS, transfected CHO-S cells, mAb 5 ug/ml
In short: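 Transiently transfected CHO-S cells expressing wild-type or mutant hASGR-1 incubated with antibody at 5 ug/ml, 1 h at 4 °C; bound antibody detected by Alexa Fluor 647 anti-Fc plus 7-AAD, by flow cytometry. Binding normalized to expression using an unaffected antibody (65C12), then to wild type; hits defined as >3× IQR above third quartile.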

[3] = target: T2, human ASGR-1 mutant construct H203 (human, UniProt P07306 1-291); test: FACS ratio: 65C12 geomean / this mAb geomean
T2 construct: Arg/Glu scanning: non-arginine residues were changed to arginine; Transiently expressed on CHO-S cells
T2 sequence: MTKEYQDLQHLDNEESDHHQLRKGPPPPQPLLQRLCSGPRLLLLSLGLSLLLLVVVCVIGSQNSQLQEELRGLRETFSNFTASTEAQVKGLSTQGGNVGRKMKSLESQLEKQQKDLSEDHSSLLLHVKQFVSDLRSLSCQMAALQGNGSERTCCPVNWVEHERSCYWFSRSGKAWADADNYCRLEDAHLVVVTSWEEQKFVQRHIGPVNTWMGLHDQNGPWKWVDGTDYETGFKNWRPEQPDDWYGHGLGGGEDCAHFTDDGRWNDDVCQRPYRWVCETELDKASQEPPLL
In short: (§1)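 CHO-S cells transiently expressing wild-type or point-mutant hASGR-1 were stained with antibody at 5 ug/ml for 1 h at 4 °C. Bound antibody was detected by Fc-specific Alexa 647 secondary plus 7-AAD and read by flow cytometry. Ratio is 65C12 geomean divided by test mAb geomean, normalizing for expression.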

human ASGR-1 (wild type) [4] = target: T1, human ASGR-1 (wild type); test: FACS ratio: 65C12 geomean / this mAb geomean
In short: as §1

B2: 22G5 (antibody, V domains shown)
VH: EVQLLESGGGLVQPGGSLRLSCAASGFTFSSYAMNWVRQAPGMGLEWVSVISRSGGYTYYADSVKGRFTISRDNSKNTLYLQMNSLRAEDTAVYYCASRLAVAGSEAFDIWGQGTLVTVSS
VL: DIQMTQSPSSLSASVGDRVTITCRASQNISSYLNWYQQKQGKAPKLLIYAASSLQNGVPSRFSGRGSGTDFTLTISSLQPEDFATYYCQQSYRTPLFTFGPGTKVDFK
notes: mAb
EC50 (human ASGR-1 (wild type) [1]): 7.2 nM
FACS Binding Geomean (human ASGR-1 (wild type) [2]): 45000
Expression Normalization to mAb 65C12 [3]: 1.71
Expression Normalization to mAb 65C12 (human ASGR-1 (wild type) [4]): 1.24

B4: 25A4 (antibody, V domains shown)
VH: QVLLVQSGAEVKRPGASVKVSCKASGYTFTNYDINWVRQATGQGLEWMGWMYPNSGNTGYAQKFQGRVTMTRNTSISTAYMELSSLRSEDTAVYYCASSSGWYYFDYWGQGTLVTVSS
VL: DIVMTQFPDSLAVSLGERATIKCKSSQSVLYSSHNNNYLAWYQQKPGQPPKLLLYWASTRESGVPDRFSGSGSGTEFTLTISSLEAEDVAVYYCQQYYSTPPTFGQGTKVEIK
notes: mAb
EC50 (human ASGR-1 (wild type) [1]): 1.6 nM
FACS Binding Geomean (human ASGR-1 (wild type) [2]): 55600
Expression Normalization to mAb 65C12 [3]: 1.29
Expression Normalization to mAb 65C12 (human ASGR-1 (wild type) [4]): 1.01

B5: 26C4 (antibody, V domains shown)
VH: QVQLVQSGAEVKKPGASVKVSCKASGYTFTNYDINWVRQASGQGLEWMGWMNPNSGNTGYAQRFQGRVTMTRNTSINTAYMELSSLRSEDTAVYYCASSSGWYYFDYWGQGTLVTVSS
VL: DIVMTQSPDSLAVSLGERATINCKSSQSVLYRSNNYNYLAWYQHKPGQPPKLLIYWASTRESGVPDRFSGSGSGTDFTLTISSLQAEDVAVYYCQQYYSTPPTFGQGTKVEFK
notes: mAb
EC50 (human ASGR-1 (wild type) [1]): 11 nM
FACS Binding Geomean (human ASGR-1 (wild type) [2]): 46000
Expression Normalization to mAb 65C12 [3]: 1.91
Expression Normalization to mAb 65C12 (human ASGR-1 (wild type) [4]): 1.22

B6: 29H8 (antibody, V domains shown)
VH: QVQLVQSGAEVQKPGASVKVSCKASGYTFTNYDINWVRQATGQGLEWMGWMNPNSGNTGYAQRFQGRVTMTRNTSISAAYMELSSLRSEDTAVYYCASSSGWYYFDYWGQGTLVTVSS
VL: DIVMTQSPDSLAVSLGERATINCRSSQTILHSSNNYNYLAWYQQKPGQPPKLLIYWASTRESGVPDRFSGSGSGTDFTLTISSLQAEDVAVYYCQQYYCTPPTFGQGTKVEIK
notes: mAb
EC50 (human ASGR-1 (wild type) [1]): 1.9 nM
FACS Binding Geomean (human ASGR-1 (wild type) [2]): 40900
Expression Normalization to mAb 65C12 [3]: 1.95
Expression Normalization to mAb 65C12 (human ASGR-1 (wild type) [4]): 1.37

B11: 48B12 (antibody, V domains shown)
VH: EVQLLESGGGLVQPGGSLRLSCAASGFTFSSYAMNWVRQAPGKGLEWVSAISGRGGNTFYADSVKGRFTISRDNSKNTLYLQMNSLRAEDTAVYYCAKRETYNWNYEGFDYWGQGTLVTVSS
VL: SYELTQPPSVSVSPGQTARITCSGDALPKKYAYWYQQKSGQAPVLVIYEDSKRPSGIPERFSGSSSGTMATLTISGAQVEDEADYYCNSTDSSGNHVVFGGGTKLTVL
notes: mAb
EC50 (human ASGR-1 (wild type) [1]): 38 nM
FACS Binding Geomean (human ASGR-1 (wild type) [2]): 52500
Expression Normalization to mAb 65C12 [3]: 1.26
Expression Normalization to mAb 65C12 (human ASGR-1 (wild type) [4]): 1.07

B12: 5E5 (antibody, V domains shown)
VH: QVQLVESGGGVVQPGRSLRLSCAASGFTFSNYVMHWVRQAPGKGLEWVAVIWYDGSNKYYADSVKGRFTISRDNSKNTLYLQMNSLRAEDTAVYYCTREVYSSGWYDYGMDVWGQGTTVTVSS
VL: DIQMTQSPSSLSASVGDRVTITCRASQGIRNDLGWYQQKPGKAPKRLIYAASSLQSGVPSRFSGSGSGTEFTLTISSLQPEDFATYYCLQHYSYPRTFGQGTKVEVK
notes: mAb
EC50 (human ASGR-1 (wild type) [1]): 3.8 nM
FACS Binding Geomean (human ASGR-1 (wild type) [2]): 40700
Expression Normalization to mAb 65C12 [3]: 2.04
Expression Normalization to mAb 65C12 (human ASGR-1 (wild type) [4]): 1.38

Stronger by EC50 (human ASGR-1 (wild type) [1]), values ahead:

EC50 (human ASGR-1 (wild type) [1]): 1.4 nM
FACS Binding Geomean (human ASGR-1 (wild type) [2]): 45500
Expression Normalization to mAb 65C12 [3]: 1.75
Expression Normalization to mAb 65C12 (human ASGR-1 (wild type) [4]): 1.23
B1: 7E11 (antibody, V domains shown)
VH: QVQLVESGGGVVQPGRSLRLSCAASGFTFSSFGMHWVRQAPGKGLEWVAIIWHDGSNKYYADSVKGRFTISRDNSNNTLYLQMSSLRAEDTAVYYCARDLSMGGMDVWGQGTTVTVSS
VL: DIQMTQSPSSLSASVGDRVTIACRASQNIISYLNWYQQKPGKAPKFLIYTASSLQSGVPSRFSGSGSGTDFTLTISSLQPEDFAIYYCQQTYSTPLTFGGGTKVEIK
notes: mAb

EC50 (human ASGR-1 (wild type) [1]): 0.82 nM
FACS Binding Geomean (human ASGR-1 (wild type) [2]): 41100
Expression Normalization to mAb 65C12 [3]: 1.36
Expression Normalization to mAb 65C12 (human ASGR-1 (wild type) [4]): 1.36
B3: 4A2 (antibody, V domains shown)
VH: QVQLVQSGTEVKKPGASVKVSCKASGYTFTNYDINWVRQATGQGLEWMGWMHPNSGNTGYAQKFQGRVTLTRNTSISTAYMELSSLRSEDTAVYYCASSSGWYYFDYWGQGTLVTVSS
VL: DIVMTQSPDSLAVSLGERATINCKSSQSILHSSNNNNYLAWFQQKPGQPPKLLLYWASTRESGVPDRFSGSGSGTDFTLTISSLQPEDVAVYYCQQYYNTPVTFGPGTKVGIK
notes: mAb

EC50 (human ASGR-1 (wild type) [1]): 1.1 nM
FACS Binding Geomean (human ASGR-1 (wild type) [2]): 42600
Expression Normalization to mAb 65C12 [3]: 1.27
Expression Normalization to mAb 65C12 (human ASGR-1 (wild type) [4]): 1.32
B7: 56E5 (antibody, V domains shown)
VH: QVQLVQSGAEVKKPGASVKVSCQASGYTFTGYHMHWVRQAPGQGLEWMGWINPNNNATNYAQKFQGRVTMTRDTSISTAYMELRRLRSDDTAVYHCARDGTSSFDYWGQGTLVTVSS
VL: DIQMTQSPSSVSASVGDRVTITCRASQGIRKWLAWYQQKPGKAPKLLIYAASSLQSGVPSRFSGSGSGTDFTLTISSLQPEDFATYYCQQANSFPFTFGPGTKVDIK
notes: mAb

EC50 (human ASGR-1 (wild type) [1]): 0.41 nM
FACS Binding Geomean (human ASGR-1 (wild type) [2]): 36500
Expression Normalization to mAb 65C12 [3]: 1.37
Expression Normalization to mAb 65C12 (human ASGR-1 (wild type) [4]): 1.54
B8: 72G9 (antibody, V domains shown)
VH: EVQLVESGGGLVKPGGSLRLSCAASGFTFSSYSMNWVRQAPGKGLEWVSSISGSSSYIYYADSVKGRFTISRDNAKNSLYLQMNSLRAEDTAVYFCARGGSRGFDPWGQGTLVTVSS
VL: DIQMTQSPSSLSASVGDRVTITCRASQSITSYLNWYQQKPGKAPKLLIYTASSLQSGVPSRFSGSGSGTDFTLTISSLQPEDFATYYCQQSHSFPFTFGPGTKVDIK
notes: mAb

EC50 (human ASGR-1 (wild type) [1]): 0.6 nM
FACS Binding Geomean (human ASGR-1 (wild type) [2]): 38600
Expression Normalization to mAb 65C12 [3]: 1.71
Expression Normalization to mAb 65C12 (human ASGR-1 (wild type) [4]): 1.45
B9: 6G7 (antibody, V domains shown)
VH: QVQLVESGGGVVQPGRSLRLSCAASGFTFSSYGMHWVRQTPGKGLEWVAIISYVGKNKYYADSVKGRFTISRDNSKNTLYLQMNSLRAEDTAVYYCARRGNSYGGYGMDVWGQGTTVTVSS
VL: DIQMTQSPSSRSASVGDRVTITCQASQDISNYLNWCQQKPGKALKLLIYDASTLETGVPSRFSGSGSGTDFTFTISSVQPEDIATYYCQQYDNVPITFGQGTRLEIK
notes: mAb

EC50 (human ASGR-1 (wild type) [1]): 1 nM
FACS Binding Geomean (human ASGR-1 (wild type) [2]): 42700
Expression Normalization to mAb 65C12 [3]: 1.4
Expression Normalization to mAb 65C12 (human ASGR-1 (wild type) [4]): 1.31
B10: 184E7 (antibody, V domains shown)
VH: QVQLVQSGAEVKTPGASVKVSCRASGYTFTSYNMHWVRQVPGQGLEWMGWINPNNGGSNYTQKFQGRVTMTRDTSISTAYMELSRLRSDDTAVYYCARKFGDWGQGTLVTVSS
VL: DIQMTQSPSSRSASIGERVTITCRASQGISNYLAWIQQKPGTAPKSLIYAASSLQSGVSSRFSGSGFGTDFTITISSVQREDFATYYCQQYNGYPFTFGHGTKVDIK
notes: mAb

EC50 (human ASGR-1 (wild type) [1]): 0.69 nM
FACS Binding Geomean (human ASGR-1 (wild type) [2]): 48500
Expression Normalization to mAb 65C12 [3]: 1.39
Expression Normalization to mAb 65C12 (human ASGR-1 (wild type) [4]): 1.16
B13: 7G4 (antibody, V domains shown)
VH: QVQLVESGGGVVQPGRSLRLSCAASGFTFNNYVMHWVRQAPGKGLEWVAVIWYDGSNKYYADSVKGRFTISRDNSKNTLYLQMTSLRAEDTAVYYCAREKYSSNWYDYGMDVWGQGTTVTVSS
VL: DIQMTQSPSSLSASVGDRVTITCRASQGIRNDLGWYQQRPGKAPKRLIYAASSLQSGVPSRFSGSGSGTEFTLTISSLQPEDSATYYCLHQYSYPRTFGQGTKVEIK
notes: mAb
